According to patent US7691628, “Use of Rev-erb family of receptors in screening” (Merck Patent GmbH):

Key:
Conditions in all cases: tags: pSG5-hRev-erbα, TnT T7 rabbit reticulocyte lysate; label: 32P
Rev-erb alpha (NR1D1) [1] = target: T1, Rev-erb alpha (NR1D1) (Homo sapiens, UniProt P20393 P20393:1-614); test: EMSA; data not illustrated
T1 sequence: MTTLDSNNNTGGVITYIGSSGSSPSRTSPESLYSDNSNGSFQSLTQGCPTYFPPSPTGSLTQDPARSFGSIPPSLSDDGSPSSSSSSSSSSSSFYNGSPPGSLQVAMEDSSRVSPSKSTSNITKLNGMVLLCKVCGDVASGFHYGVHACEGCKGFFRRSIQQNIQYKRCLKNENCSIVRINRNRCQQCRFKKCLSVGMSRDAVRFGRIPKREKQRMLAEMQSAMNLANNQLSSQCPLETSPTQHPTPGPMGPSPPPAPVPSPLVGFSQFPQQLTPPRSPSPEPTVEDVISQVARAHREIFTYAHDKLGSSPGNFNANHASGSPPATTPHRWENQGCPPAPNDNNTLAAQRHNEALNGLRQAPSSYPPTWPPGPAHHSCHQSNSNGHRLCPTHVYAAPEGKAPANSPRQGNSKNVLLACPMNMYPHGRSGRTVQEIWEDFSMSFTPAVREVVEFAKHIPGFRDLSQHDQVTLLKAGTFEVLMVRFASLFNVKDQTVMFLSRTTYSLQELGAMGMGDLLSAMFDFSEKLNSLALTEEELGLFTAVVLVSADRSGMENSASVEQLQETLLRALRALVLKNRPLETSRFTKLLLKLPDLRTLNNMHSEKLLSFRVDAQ

Rev-erb alpha (NR1D1) [2] = target: T1, Rev-erb alpha (NR1D1); test: EMSA; no significant retardation
Rev-erb alpha (NR1D1) [3] = target: T1, Rev-erb alpha (NR1D1); test: EMSA; two complexes, monomer and dimer; 10 mM Hepes, 80 mM KCl, polydIdC

B1: HCIII-TaTaKO (dsDNA)
DNA 1: GATCGATATAAAACAGGCAGGAACCCTC
DNA 2: GATCGAGGGTTCCTGCCTGTTTTATATC
B1: no binding (Rev-erb alpha (NR1D1) [1]).

B2: C3P-DR2 (-104/-72) (dsDNA)
DNA 1: GATCCTCATCTCCACTGGTCAGCAGGTGACCTTTGC
DNA 2: GATCGGCAAAGGTCACCTGCTGACCAGTGGAGATGAG
B2: no binding (Rev-erb alpha (NR1D1) [2]).

B3: Rev-DR2 (dsDNA)
DNA 1: GATCCGGAAAAGTGTGTCACTGGGGCACGA
DNA 2: GATCTCGTGCCCCAGTGACACACTTTTCCG
B3: binds (Rev-erb alpha (NR1D1) [3]).
